Reference: PMC4419837, “Purification and characterization of DR_2577 (SlpA) a major S-layer protein from Deinococcus radiodurans” (Frontiers in Microbiology, 2015)
Several values for one entry are separate records, joined by “and”; a condition that tells them apart may be missing. Equal values may be shown once.

Legend:
[1] = target: the molecule itself; assay: native gel or EMSA; BN-PAGE, 3-12% gradient gel, 205 V for 5 h at 4°C, about 0.1 ug protein from the main SEC peak; mass estimated against NativeMARK; hexamer
[2] = target: the molecule itself; assay: SDS-PAGE; standard denaturation: Rotiload, not boiled and not treated with tris-2-carboxy-ethylphosphine; polyacrylamide/urea gel; mass estimated against prestained standard; dimer

B1: DR_2577 (SlpA), major S-layer protein from Deinococcus radiodurans (natural protein, UniProt Q9RRB6 23-1167, looked up)
chain: APVSAPQVPALTDVPAGHWAKDAIDRLVSRGVILGYPDGTFRGTQNLTRYEAAIIIARLLDQMRDGETPAGMTAEDMTALQNAIQELAADLAALGVRVSDLEANAVSKDDFARLEARIEEVAAAGGEQGATEALQGQIDDLTARVDEYDALRADVDDNASSIAALNDLTVLLNQDILDLQDRVSAVEAAQADFVQRSDFDALGGRVTTVETRVETVNNSLTGRIAALERNAFSVKPSLTIGYSVSRTSRNFDVDRLFPLNADGTVANNAFTSGGIDTDTGAQRRDFGDFGNASDPVVAGAAGLYGFADGVSYTVYFTDGSTATFDGLNPADYKVPTGKVIDTTKGRNGFGFNNLARYKEGSTDIGISLGFDTSGQFSQVTSGTGGSLFSTAGRLQVNQIDLNFGLVTGLPSDAYVDTNGNGKKDDGEATGRGTYLGSGGTAAILRDPAGNVYRPVFFRFKNATTQFSVGNNPVIVTLGQQQKFYFSDYVFDNNYDGRGDGFTVTVDGSNVPVIGAWKPQIKGVYGSRSGLDGTAEAGYGVYYRGVRAQITPVGTLTAGIHYAQEGRDMFGAAQNTTSTPSDVTTYGADLHGKAFGVELHSEYATSRVRPNTANAAVQTSNAFYARVATRKDNLAFDLNTPAAKFGNDTFGVSLYDLNYRKIDAGYNNVAGISEYGYGSYSRTSAQNIAYNPDTGVTAPFANLDRQAYTDANNDGTSDRNADGTVVATNTKIGQMGFGVKAAANLGPVAIGGYYDTSTGANGDNANRMTEAGGSAKVAYSIFSLRGTYNTLDSNRPQIYRDAAGTQIIGDAKVRRYAVQADVTPGLGLFVGAYYRDVNVNGVRSTTDRGLLGRGYLASSFEPGVGNNAYRTGLRCADNNFGTGTRDIDGVGGVLNPAVNLDQSRTATCFTSYGVEAGHAGDNANALVKDLFFRVGYSRVYVPTTATATTGDFSGSVTYGDARYDRKVGVANVRLAGSFSTTNTQLDSRPAGTRGAVGLIVRTDPLENVPFRPQFNGQVGYYTADNRVAAGNYNANATKYGAGVVLNDFLLPQTKIGVRYDGYMAQNRQYTPFDGDGTQGYFSDANNNRRTNLNGVYVEGAYQDLIFSYGTYTLSQKDLNGVEYGSGINNGQPARGQTFKISYKVNF
notes: DR_2577 (SlpA), S-layer protein of Deinococcus radiodurans R1; cysteines at residues 896 and 929; Native protein isolated from the bacterium; It infers that the dimers are held by an intermolecular disulfide bond, and only a computer prediction assigns that bond to Cys929
stoichiometry N [1]: 6.22 and 5.95 | stoichiometry N [2]: 2.25 and 2.17
